Target: Native (wild-type) human factor VIIa (human) (UniProt P08709)
Assay: cell-based or functional assay

Chain of UniProt P08709 (P08709 213-466, chain 2 of 2, other chains not shown): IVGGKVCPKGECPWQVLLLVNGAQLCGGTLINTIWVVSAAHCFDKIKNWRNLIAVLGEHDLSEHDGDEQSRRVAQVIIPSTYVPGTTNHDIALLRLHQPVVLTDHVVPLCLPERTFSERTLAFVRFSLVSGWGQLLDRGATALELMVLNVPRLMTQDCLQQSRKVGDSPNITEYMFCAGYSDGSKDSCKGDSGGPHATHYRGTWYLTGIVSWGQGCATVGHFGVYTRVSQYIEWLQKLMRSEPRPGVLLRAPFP

Relative first-order rate constants (ratio) of ATIII inhibition (ratio to wt-Factor VIIa): 1
Substance: Antithrombin III (ATIII) (from UniProt P01008 33-464)

From patent publication US20150044195A1
